Experimental data taken from article PMC2599858.

Legend:
[1] = target: eGFP-CaMKII (UniProt P11275); assay: number and brightness
[2] = target: nonlabeled αCaMKII (Ca2+/CaM-dependent protein kinase II, alpha) (UniProt P11275); assay: number and brightness

Row | Substance | stoichiometry N [1] | molecular brightness, times that of eGFP (times that of eGFP) [2]
1 | eGFP-CaMKII (from UniProt P11275 1-478) (enzyme) | > 3 | –
2 | enhanced green fluorescent protein (eGFP)-CaM (from UniProt P0DP23 1-149) (natural protein) | – | 3
